# Source: patent publication US20110086089A1, “USE OF P27KIP1 FOR THE PREVENTION AND TREATMENT OF HEART FAILURE” (UNIVERSITY HEALTH NETWORK, priority 2008, published 2011)
# Test system: p27 phosphorylation at S83 and T187 in cardiomyocytes
# Assay: p27 phosphorylation at S83 and T187 in Ang II-treated cardiomyocytes (Western blot)
# Type: cell-based, rat
# Settings: Ang II 4 h; lentiviruses 72 h; DMAT 20 μM pre-incubated 30 min; TAT-conjugated CK2-alpha-prime 2.5 μg/ml 1 h
# Protocol: FIG. 2 is a series of graphs and blots showing Ang II triggers CK2-alpha-prime-dependent phosphorylation of p27 on S83 and T187 in cardiomyocytes. (A) p27 is a substrate of CK2-alpha-prime. […] In vitro kinase assays employing recombinant wt.p27 (1 μg) or phosphorylation site mutants of p27 as substrates were incubated with recombinant CK2-alpha-prime/beta (200 ng). Aliquots of the reaction mixtures were resolved on SDS-PAGE, electrotransferred to nitrocellulose membranes, and the amount of incorporated radioactive [^32P}-label into p27 was quantified with a PhosphorImager and ImageJ software. Individual membranes were probed with anti-CK2-alpha-prime, anti-p27 (input), or phosphorylation site specific antibodies to p27. […] Samples were resolved on SDS-PAGE, transferred to nitrocellulose-membranes, and the amount of incorporated radioactive label into histones was quantified with a PhosphorImager and ImageJ. The input amount of each CK2-alpha-prime and p27 protein used in the kinase reaction mixtures was monitored by immunoblot analysis employing anti-His. […] Biochemically fractionated extracts corresponding to 4×10^5 cells per lane were analyzed by immunoblotting employing antibodies as indicated on the left. […]
molecule,measurement,value
"kd.CK2-α′: catalytically-inactive kinase-dead CK2-alpha-prime, point mutation K69M; TAT-conjugated protein in mice, lentivirally expressed in cardiomyocytes (protein, left off: small tags and cut ends, TAT-conjugated protein in mice, lentivirally expressed in cardiomyocytes) MPGPAAGSRARVYAEVNSLRSREYWDYEAHVPSWGNQDDYQLVRKLGRGKYSEVFEAINITNNERVVVMILKPVKKKKIKREVKILENLRGGTNIIKLIDTVKDPVSKTPALVFEYINNTDFKQLYQILTDFDIRFYMYELLKALDYCHSKGIMHRDVKPHNVMIDHQQKKLRLIDWGLAEFYHPAQEYNVRVASRYFKGPELLVDYQMYDYSLDMWSLGCMLASMIFRREPFFHGQDNYDQLVRIAKVLGTEELYGYLKKYHIDLDPHFNDILGQHSRKRWENFIHSENRHLVSPEALDLLDKLLRYDHQQRLTAKEAMEHPYFYPVVKEQSQPCADNAVLSSGLTAAR",S83/T187 phosphorylation of p27 in cardiomyocytes,abolished
